# Source: patent US20080247947A1, “High dose 111In-pentetreotide therapy of neuroendocrine tumors” (priority 2007, published 2008)
# “Also recorded” adds a separate entry of the source.
# What was measured:
# carcinoid tumors = conditions: cited from earlier work
# [1] = cited from earlier work
# [2] = tested on: carcinoid syndrome, advanced disease; conditions: patients with advanced disease; cited from earlier work
# [3] = tested on: progressive neuroendocrine tumors; test: Non-randomized trial: clinical, metabolic and imaging response (RECIST) after two cycles; assay type: in vivo; conditions: 18 patients, two cycles of 500 mCi
# Text: Among these patients, seventeen (53%) had grade I or II hematological toxicities, while one patient had grade III thrombocytopenia with nadir mean of 5 weeks (ranging from 4 to 6 weeks) after therapy (FIG. 2). These toxicities were transient, lasting from 1 to 6 weeks (averaging 3 weeks). […] One patient had grad II liver toxicity which appeared 4 weeks after the therapy and resolved in week 5. […] Among the 18 patients (13 men and 5 women, from 41 to 83 years old (average age 59)), who were treated with two cycles of high dose (500 mCi) ^111In-pentetreotide, therapeutic efficacy of this treatment regimen is evident (FIG. 3). These patient had progressive neuroendocrine tumors and failed first-line therapy. According to the pre-therapy diagnostic ^111In-pentetreotide scan, these patients had grade 3 to grade 5 tumors. In this trial, each dose of ^111In-pentetreotide was infused over a period of 3 to 6 hours. The two treatments were spaced a few weeks (e.g., […]) apart. The patients were monitored for clinical, metabolic, and imaging responses based on using Response Evaluation Criteria in Solid Tumors (RECIST) criteria (Therasse P, Arbuck S G, Eisenhauer E A, et al. New guidelines to evaluate the response to treatment in solid tumors. European Organization for Research and Treatment of Cancer, National Cancer Institute of the United States, National Cancer Institute of Canada. Journal of the National Cancer Institute 2000; 92(3):205-16.).
# (§1) Patients were injected with ^111In-pentetreotide at an average dose of 489.2 mCi (ranging from 473.5 to 511.6 mCi) as an intravenous infusion in physiological saline using a specially designed IV pole to decrease radiation exposure to the personnel. The infusion took about 3 to 5 hours, in an outpatient setting. The amount of octreotide administered was 30 mg. Patients were evaluated for hematological, renal and hepatic toxicities using NCI common toxicities criteria on week 4, 5, 6, and 7 after treatment, and every three months thereafter. Patients were followed for an average of 8.69 months with a range of 1.7-17.2 months. 18 patients received a second treatment 10-12 weeks after the first therapy with an average cumulative dose of 982.8 mCi (ranging from 955.1 to 1006.1 mCi). These patients were evaluated for a clinical and metabolic responses beginning 4 weeks after their second therapy.
# The efficacy of ^111In-pentetreotide therapy was evaluated in 18 patients who received two cycles of therapy. The primary endpoint was clinical, metabolic and imaging response using RECIS criteria. […] Tumor image before and after treatment showing no progression (FIG. 6).
# disseminated NETs = conditions: 16 patients, repeated doses 81-134 mCi, cited from earlier work
# [4] = tested on: patients with progressive neuroendocrine tumors; test: Non-randomized trial: hematological, renal and hepatic toxicities by NCI common toxicities criteria; assay type: in vivo
# Description: In a non-randomized trial, 32 patients (21 men and 11 women, from 16-83 years old (average 56 years old)) were tested. Among these patients, there were 25 Caucasions (78%), 2 Blacks (6%), 4 Hispanics (12.5%) and 1 other (3%). All patients had progressive neuroendocrine tumors (21 Carcinoma, 7 Islet Cell Carcinoma of the Pancreas, 1 Pituitary Adenoma, 1 Glucagonoma, and 1 Pheochromocytoma) and all had failed first line therapy (23 chemotherapy, 12 radiotherapy, and 28 surgery).
# Fourteen patients received one therapy (ranging from 473.5 to 511.6 mCi, with an average of 489.2 mCi) and 18 patients received two treatments with the cumulative doses ranging from 955.1 to 1,006.1 mCi (average=982.8 mCi/patient). Patients were evaluated for evidence of hematological, renal and hepatic toxicities using NCI common toxicities criteria and followed for an average of 9 months (ranging from 1.7 to 17.2 months).
# as §1
# NETs = conditions: 180 mCi every 3 weeks for 10 occasions; cited from earlier work
# [5] = 18 patients, double-dose treatments
# [6] = 32 patients, one or two cycles of about 500 mCi
molecule,measurement,setting,value
Interferon [Interferon (IFN)],biochemical response rate,carcinoid tumors; carcinoid tumors,40%
same,tumor response rate,carcinoid tumors; carcinoid tumors,12%
same,toxicity,"carcinoid tumors; fever, anorexia, weight loss, fatigue and myelosuppression",significant toxicity
C[C@@H](O)[C@@H]1NC(=O)[C@H](CCCCN)NC(=O)[C@@H](Cc2c[nH]c3ccccc23)NC(=O)[C@H](Cc2ccccc2)NC(=O)[C@@H](NC(=O)[C@H](N)Cc2ccccc2)CSSC[C@@H](C(=O)N[C@H](CO)[C@@H](C)O)NC1=O [octreotide],in vivo half-life,[1],1.5 to 2 h
same,"tumor stabilization, patients",[2],50-55%
[^111In-DTPA-D-Phe1]-octreotide [^111In-pentetreotide],"clinical response (functional living index questionnaire and physical examination), patients",[3],84%
same,"metabolic response (25% or more decline in chromogranin or other markers), patients",[3],72%
same,patients achieving stable disease by imaging criteria,[3],88%
same,patients achieving stable disease by imaging criteria (count),[3],sixteen out of the 18
same,patients with sustained benefit,disseminated NETs; 18 months after the treatments,31%
same,patients with some short term benefits,disseminated NETs,up to 70%
same,nose bleeds,[4]; 4 weeks after treatment,One patient
same,patients with grade I or grade II hematological toxicities,"[4]; 18 patients, double-dose (two cycles of 500 mCi)",55%
same,duration of hematological toxicities,[4]; [5],1-6 weeks
same,grade III thrombocytopenia,[4]; [5],one patient
same,nadir mean after therapy,[4]; [5],5 weeks
same,need for supportive therapy,[4]; [5],None of the patients required supportive therapy
same,renal toxicity,"[4]; 18 patients, double-dose treatments, follow-up 3.93 to 17.23 months",No renal toxicity was observed
same,grade II liver toxicities,"[4]; 18 patients, double-dose treatments, appeared 4 weeks after therapy, resolved on week 5",One patient
same,renal toxicity,"[4]; 32 patients, follow-up 1.7 to 17.2 months",no evidence of renal toxicity; also recorded: No significant short or long term renal toxicity
same,need for supportive therapy,"[4]; 32 patients, one or two cycles",None of the patients required supportive therapy
same,duration of hematological toxicities (average),[4]; [6],3 weeks
same,grade III thrombocytopenia,[4]; [6],one patient
same,nadir mean of hematological toxicity after therapy,[4]; [6],5 weeks
same,patients with grade I or II hematological toxicities,"[4]; 32 patients, one or two cycles of about 500 mCi, intravenous infusion",53%
same,grade II liver toxicity,"[4]; 32 patients, appeared 4 weeks after therapy, resolved in week 5",One patient
same,deaths during the course of the study,"[4]; 32 patients, deaths attributed to tumor burden",Two patients died
same,maximum tolerated dose,"[4]; average cumulative dose 982.8 mCi, average follow up 8.69 months",maximum tolerated dose has not been reached
same,overall treatment associated toxicity,[4]; following one or two cycles,no evidence of significant treatment associated toxicity
same,safety of repeated doses,NETs,demonstrated the safety
